# Assays:
# [1] = molecular target: Flag-tagged nsp7 of SARS-CoV-2 (SARS-CoV-2) (UniProt P0DTD1); experiment: co-IP
# [2] = molecular target: Flag-tagged nsp8 of SARS-CoV-2 (SARS-CoV-2) (UniProt P0DTD1); experiment: co-IP
Substance,increase in co-precipitated complex against wild type [1],increase in co-precipitated complex against wild type [2],decrease in co-precipitated complex against wild type [1],decrease in co-precipitated complex against wild type [2]
HA-tagged nsp12 T20E mutant (natural protein),2 fold,2 fold,–,–
HA-tagged nsp12 T20A mutant (natural protein),–,–,33%,33%
